Assay results taken from patent US12168063B2, “Stable, concentrated radionuclide complex solutions” (Advanced Accelerator Applications SA, priority 2018, dated 2024).

Tests used:
[1] = after 72 hours at 25° C.
[2] = Stability study after storage: chemical purity (peptide purity) by RP-UV-HPLC; assay type: physicochemical

Q: For “hydrogen [N-{[4,7,10-tris(carboxylato-κO-methyl)-1,4,7,10-tetraazacyclododecan-1-yl-κ^4N^1,N^4,N^7,N^10]acetyl-κO}-D-phenylalanyl-L-cysteinyl-tyrosyl-D-tryptophyl-L-lysyl-L-threonyl-L-cysteinyl-L-threoninato cyclic (2→7)-disulfide(4-)](177Lu)lutetate(1-) [^177Lu-DOTA-TATE]”, which radiochemical purity [1] is on record?
A: Its radiochemical purity is “at least 95%”.

Q: For `C[C@@H](O)[C@H](NC(=O)[C@@H]1CSSC[C@H](NC(=O)[C@@H](Cc2ccccc2)NC(=O)CN2CCN(CC(=O)O)CCN(CC(=O)O)CCN(CC(=O)O)CC2)C(=O)N[C@@H](Cc2ccc(O)cc2)C(=O)N[C@H](Cc2c[nH]c3ccccc23)C(=O)N[C@@H](CCCCN)C(=O)N[C@@H]([C@@H](C)O)C(=O)N1)C(=O)O` [DOTA-TATE, DOTA-d-Phe-Cys-Tyr-d-Trp-Lys-Thr-Cys-Thr (cyclo 2,7)], which “stability with respect to chemical purity” value ([2]; 32° C. for 12 h and 25° for 60 h) is on record?
A: The value was “such high stability was found”.

Q: What about the chemical purity ([2]; after 48 hours at 32° C.) of the same molecule?
A: Its chemical purity is 100%.

Q: And the chemical purity ([2]; after 72 hours at 25° C.)?
A: Its chemical purity is 100%.
